These results are taken from article doi:10.1101/2021.06.06.446989.

Where two headings read alike, the source gives them in different places.

In general, Kd refers to the equilibrium constant for the complex coming apart.

The target of test [1] is RXFP1, wild-type receptor expressed on HEK293T cells (human) (UniProt Q9HBX9). The test is described as follows: saturation binding of Europium-labelled ligand on cells.
Test [2] has as its target RXFP2F11, chimera of the LDLa and GDxxGWxxxF motif (Met1-Phe51) of RXFP2 and the remainder of RXFP1 (human). The test is described as above.
Test [3] deals with RXFP1(1-72), RXFP1 LDLa module and its 32-residue linker (human). The test is described as follows: NMR titration.
Test [4] concerns the target RXFP2(1-65)-ExLink2 (human). The experiment in a line: NMR titration.
The target in test [5] is D42A-RXFP1(1-72) (human). The test is described as follows: NMR titration.
The target of test [6] is RXFP1(1-72), RXFP1 LDLa module and its 32-residue linker (human). The test is described as follows: NMR titration. The source holds these as a separate data set.
Test [7] addresses RXFP2(1-65), RXFP2 LDLa module and its 26-residue linker (human). The experiment in a line: NMR titration.
Test [8] addresses RXFP2(1-65)-ExLink2 (human). The test is described as follows: NMR titration. The source holds these as a separate data set.
Test [9] addresses W46A-RXFP1(1-72) (human). The experiment in a line: NMR titration.
Test [10] addresses RXFP1(1-72), RXFP1 LDLa module and its 32-residue linker (human). The experiment in a line: 15N-CPMG relaxation dispersion NMR.
The target in test [11] is RXFP1(1-72)-L7K/K17A (human). The experiment in a line: 15N-CPMG relaxation dispersion NMR.

Chain of UniProt Q9HBX9 (Q9HBX9 whole entry): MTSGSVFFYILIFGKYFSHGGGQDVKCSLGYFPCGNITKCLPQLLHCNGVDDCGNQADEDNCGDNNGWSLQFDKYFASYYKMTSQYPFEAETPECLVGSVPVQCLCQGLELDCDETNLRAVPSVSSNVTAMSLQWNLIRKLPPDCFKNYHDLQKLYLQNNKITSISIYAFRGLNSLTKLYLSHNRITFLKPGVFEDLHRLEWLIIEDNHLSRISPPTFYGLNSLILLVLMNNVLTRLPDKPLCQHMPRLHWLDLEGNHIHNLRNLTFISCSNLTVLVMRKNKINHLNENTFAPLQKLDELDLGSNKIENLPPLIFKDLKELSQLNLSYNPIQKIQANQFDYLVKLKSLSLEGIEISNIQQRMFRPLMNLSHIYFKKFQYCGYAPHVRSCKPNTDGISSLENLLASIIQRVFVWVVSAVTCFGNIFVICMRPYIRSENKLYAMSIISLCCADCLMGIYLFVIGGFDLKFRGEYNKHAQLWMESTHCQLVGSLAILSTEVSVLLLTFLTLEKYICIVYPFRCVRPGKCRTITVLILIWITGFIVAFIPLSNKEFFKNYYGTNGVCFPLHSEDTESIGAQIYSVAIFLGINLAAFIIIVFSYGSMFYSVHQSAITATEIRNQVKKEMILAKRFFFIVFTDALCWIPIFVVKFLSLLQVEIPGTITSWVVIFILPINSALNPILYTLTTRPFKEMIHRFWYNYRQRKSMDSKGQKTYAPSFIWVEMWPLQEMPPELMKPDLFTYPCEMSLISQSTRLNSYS

As to “H2 relaxin, native recombinant (serelaxin), Europium-labelled for the binding assay (ligand)”, the results for the Kd in test [1] and in [2] were 0.0006 µM and over 0.02 µM, respectively.

For the substance “amidated H2 relaxin (both the A and B-chain C-termini amidated) (ligand)”, the dissociation constant Kd in test [3] was 442 µM; in [4] it was 482 µM; in test [6], 85 µM; in test [7], 205 µM; in test [8], 171 µM; in [10], 25 µM. The Kd in test [11] turned out to be 30 µM. Also, the fold decrease in affinity against wild-type RXFP1(1-72) in test [5] and in test [9] was 4 fold each time.
